Experimental data reported in article PMC2915839 (Journal of the American Chemical Society, 2010).
Values joined by “and” are separate entries in the source; they are usually repeats but may differ in a detail not shown here. Equal entries are not always repeated.

How the values were obtained:
^15N-labeled Aβ(1–40) = ^15N-labeled Aβ(1–40) (Homo sapiens, UniProt P05067); test: Intermolecular paramagnetic relaxation enhancement; type: binding
[1] = molecular target: T1, NMR invisible oligomeric species of Aβ (1–40) (Homo sapiens, UniProt P05067); type: binding
T1 sequence (P05067 672-711 limits assumed): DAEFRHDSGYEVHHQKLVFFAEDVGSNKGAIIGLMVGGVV

[2] = molecular target: T1, NMR invisible oligomeric species of Aβ (1–40); test: 15N-R2 and 1HN-R2 transverse relaxation; type: binding
[3] = Dynamic light scattering / transmission EM of equilibrated samples; type: physicochemical; details: equilibrated 150 and 300 µM samples
[4] = 150 µM total; 50 mM HEPES, pH 6.8, 10°C

^15N-labeled Aβ(1–40), sequence (P05067 672-711 limits assumed): as above

Substance	intermolecular PREs, in words (^15N-labeled Aβ(1–40); 100 µM U-[15N]-Aβ(1–40) + 170 µM spin-labeled F20C variant)	population of lower order, transient, self-associated states (^15N-labeled Aβ(1–40); if present, or exchange is slow on the PRE time scale (< ca. 1 ms))	timescale of monomer-oligomer dynamic equilibrium [1]	fraction of oligomers ([1]; 60 µM)	effect of off-resonance saturation pulse on amide signal intensity ([1]; 60 µM, until pulse approaches resonances of the protein)	effect of CW pulse far off-resonance on amide resonances ([1]; 300 µM, RF 180 and 350 Hz)	fraction of peptide within dark oligomeric state exchanging with free monomer ([1]; abstract, concentration not specified)	peptides within the oligomer undergoing exchange with free monomer, 1 in about N ([1]; from fex)	mobility of N-terminal 9 residues upon association with oligomer ([1]; from regional specificity of ΔR2)	konapp (apparent first order rate constant, monomer to oligomer) ([2]; 300 µM total, pH 6.8, 10°C)	1HN-R1 of monomer ([2]; Aβ(1–40) monomer, 10°C)	presence of aggregates by dynamic light scattering [3]	morphology by transmission EM ([3]; negatively stained, >3 weeks)	monomer concentration at pseudo-equilibrium [4]
F20C: single-cysteine variant Aβ(1–40), F20C mutation in the center of the peptide, conjugated to a nitroxide spin-label or a diamagnetic analogue	essentially no intermolecular PREs were observed													
Aβ(1–40): amyloid β (Aβ) peptide (1–40), uniformly 15N-labeled, prepared from NaOH treated stocks to remove fibril seeds		1–2%	10 to 15 ms	negligible	no effect on the signal intensity of the amide resonances	uniformly attenuated	~ 3%	about 30	remain highly mobile	3.1 s^−1 and ~ 3 s^−1	1 s⁻¹	presence of large polydisperse aggregates was confirmed	elongated morphologically disordered non-fibrillar aggregates with possibly some small needle-like fibrils present	105 µM
